According to article PMC2993495 (Molecular cell, 2009):
Where “and” joins values, the source holds several entries; their conditions need not be identical. Identical values can stand only once.

T1: Smc5-TAF (budding yeast (S. cerevisiae), UniProt Q08204 1-1093)
T1 sequence (looked up): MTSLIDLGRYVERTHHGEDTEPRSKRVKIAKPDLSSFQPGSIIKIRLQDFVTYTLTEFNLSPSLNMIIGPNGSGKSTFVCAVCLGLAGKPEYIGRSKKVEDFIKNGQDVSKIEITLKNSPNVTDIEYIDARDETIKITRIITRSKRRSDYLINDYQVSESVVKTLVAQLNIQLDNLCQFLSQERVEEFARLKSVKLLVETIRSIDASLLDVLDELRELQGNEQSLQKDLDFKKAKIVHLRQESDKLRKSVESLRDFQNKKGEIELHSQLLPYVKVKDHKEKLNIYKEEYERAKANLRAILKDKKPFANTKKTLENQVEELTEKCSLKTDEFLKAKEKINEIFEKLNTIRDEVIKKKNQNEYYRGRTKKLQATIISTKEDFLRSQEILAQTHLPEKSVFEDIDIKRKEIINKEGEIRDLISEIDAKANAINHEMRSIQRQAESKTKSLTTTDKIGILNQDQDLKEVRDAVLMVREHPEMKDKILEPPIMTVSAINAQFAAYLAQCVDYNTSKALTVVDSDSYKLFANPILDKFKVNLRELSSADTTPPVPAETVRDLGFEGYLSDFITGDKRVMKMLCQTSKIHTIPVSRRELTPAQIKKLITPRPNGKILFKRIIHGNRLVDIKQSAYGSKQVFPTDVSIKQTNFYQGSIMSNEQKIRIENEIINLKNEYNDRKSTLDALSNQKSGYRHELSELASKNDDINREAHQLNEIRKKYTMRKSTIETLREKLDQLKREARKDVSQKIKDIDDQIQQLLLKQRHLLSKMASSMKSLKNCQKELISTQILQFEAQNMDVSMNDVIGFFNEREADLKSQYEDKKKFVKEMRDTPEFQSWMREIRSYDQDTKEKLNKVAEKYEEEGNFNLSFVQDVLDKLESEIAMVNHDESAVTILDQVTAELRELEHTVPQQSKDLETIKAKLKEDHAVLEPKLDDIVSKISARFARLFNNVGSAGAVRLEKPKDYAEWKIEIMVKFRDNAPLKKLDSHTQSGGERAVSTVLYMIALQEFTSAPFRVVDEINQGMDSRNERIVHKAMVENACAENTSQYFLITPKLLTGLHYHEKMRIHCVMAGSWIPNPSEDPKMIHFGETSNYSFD

T2: Mms21, full length (crystallised complex) (budding yeast (S. cerevisiae), UniProt P38632 1-267)
T2 sequence (looked up): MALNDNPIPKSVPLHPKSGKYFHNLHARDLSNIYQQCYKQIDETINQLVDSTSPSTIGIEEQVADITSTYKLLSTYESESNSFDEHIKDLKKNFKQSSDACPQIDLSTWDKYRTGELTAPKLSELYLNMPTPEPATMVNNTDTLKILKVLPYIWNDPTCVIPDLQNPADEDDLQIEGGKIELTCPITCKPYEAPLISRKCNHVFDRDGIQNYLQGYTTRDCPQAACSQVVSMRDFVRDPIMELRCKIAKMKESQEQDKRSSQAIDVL


Columns and labels:
[1] = biological target: His6-tagged wild-type Mms21 (budding yeast (S. cerevisiae)) (UniProt P38632); experiment: ITC
[2] = biological target: Mms21-M1, His6-tagged (budding yeast (S. cerevisiae)) (UniProt P38632); experiment: pull-down
[3] = biological target: T1, Smc5-TAF; experiment: co-IP
[4] = biological target: T2, Mms21, full length (crystallised …); experiment: crystal structure

| Molecule | Smc5 binding, percent of wild-type [3] | also measured |
| --- | --- | --- |
| GST-Smc5-arm (from UniProt Q08204 302-369; Q08204 733-813) (domain or fragment) |  | dH [1]: -18.2 kcal/mol and -22 kcal/mol; Smc5 binding, percent of wild-type (% of wild-type) [2]: 84 |
| mms21-M1-3HA (natural protein, budding yeast (S. cerevisiae)) MALNDNPIAKSAPAAPKSGKYFHNLHARDLSNIYQQCYKQIDETINQLVDSTSPSTIGIEEQVADITSTYKLLSTYESESNSFDEHIKDLKKNFKQSSDACPQIDLSTWDKYRTGELTAPKLSELYLNMPTPEPATMVNNTDTLKILKVLPYIWNDPTCVIPDLQNPADEDDLQIEGGKIELTCPITCKPYEAPLISRKCNHVFDRDGIQNYLQGYTTRDCPQAACSQVVSMRDFVRDPIMELRCKIAKMKESQEQDKRSSQAIDVL | 5 % of wild-type |  |
| mms21-M3-3HA (natural protein, budding yeast (S. cerevisiae)) MALNDNPIPKSVPLHPKSGKYFHNLHARDLSNAAQQAYKQIDETINQLVDSTSPSTIGIEEQVADITSTYKLLSTYESESNSFDEHIKDLKKNFKQSSDACPQIDLSTWDKYRTGELTAPKLSELYLNMPTPEPATMVNNTDTLKILKVLPYIWNDPTCVIPDLQNPADEDDLQIEGGKIELTCPITCKPYEAPLISRKCNHVFDRDGIQNYLQGYTTRDCPQAACSQVVSMRDFVRDPIMELRCKIAKMKESQEQDKRSSQAIDVL | 30 % of wild-type |  |
| mms21-M5-3HA (natural protein, budding yeast (S. cerevisiae)) MALNDNPIPKSVPLHPKSGKYFHNLHARDLSNIYQQCYKQIDETINQLVDSTSPSTIGIEEQVADITSTYKLLSTAESAANSADEHIKDLKKNFKQSSDACPQIDLSTWDKYRTGELTAPKLSELYLNMPTPEPATMVNNTDTLKILKVLPYIWNDPTCVIPDLQNPADEDDLQIEGGKIELTCPITCKPYEAPLISRKCNHVFDRDGIQNYLQGYTTRDCPQAACSQVVSMRDFVRDPIMELRCKIAKMKESQEQDKRSSQAIDVL | 66 % of wild-type |  |
| Smc5 arm chimera (Asp302-Leu369, Gly-Ser-Gly-Ser linker, Lys733-Gln813), 6xHis-tagged (domain or fragment, budding yeast (S. cerevisiae)) DKKPFANTKKTLENQVEELTEKCSLKTDEFLKAKEKINEIFEKLNTIRDEVIKKKNQNEYYRGRTKKLGSGSKREARKDVSQKIKDIDDQIQQLLLKQRHLLSKMASSMKSLKNCQKELISTQILQFEAQNMDVSMNDVIGFFNEREADLKSQ |  | binding result [4]: binds |
